Entries after “also recorded” stand apart in the source; their conditions may differ. Where no end group is shown, it is not given here. The star is where a group is joined. EDANS = O=S(=O)(O)c1cccc2c(NCCN*)cccc12
Experiments:
collagen IV = assay: Retention linker peptide binding to collagen IV-coated beads; conditions: peptides 20 uM, 2 hours
Experimental: (§1) A series of peptides comprising an MMP cleavable site with or without the addition of a tumor retention sequence were synthesized and conjugated to the fluorophore EDANS (5-((2-Aminoethyl)amino)naphthalene-1-sulfonic acid) (custom synthesis, ThermoFisher). […] These peptides were then tested for their ability to bind ECM proteins such as heparin, fibronectin and collagen which are found in abundance in the tumor stroma.
(§2) For fibronectin and collagen binding assays, streptavidin coupled magnetic beads (Mag Sepharose, Cytiva and Dynabeads, ThermoFisher, respectively) were first incubated with biotin-labelled fibronectin (Cytoskeleton) or biotin-labelled collagen IV (Prospec) for 1 Hr with gentle shaking. Following multiple washes, the ECM-coated beads were then incubated with Edans Peptides (20 uM) for 2 hours at room temperature with shaking in neutral or acidic binding buffer. Beads were then washed and resuspended in 100 uL of binding buffer in a black 96-well plate. Peptide binding was quantified by measuring the fluorescence of samples using excitation/emission spectra of EDANS (Ex 340/Em 490).

[1] = tested on: Heparan sulfate proteoglycans; conditions: DTx protein derived; Note 1; cited from earlier work
fibronectin = assay: Retention linker peptide binding to fibronectin-coated beads; conditions: peptides 20 uM
Experimental: as §1, §2

MC38 tumor = assay: Intra-tumoral injection in syngeneic MC38 colorectal cancer model; type: in vivo, mice
Experimental: Tumors and body weights were measured twice a week for the duration of the study. Tumor volumes were calculated using the following equation: (longest diameter*shortest diameter^2)/2.

CTLL-2 cells = assay: CTLL-2 proliferation assay (MTT); type: cell-based
Experimental: (§3) Recombinant MMP9 and/or MMP2 (R&D Systems) was first activated with p-aminophenylmercuric acetate and this activated protease or equivalent amount of activating solution without the protease was used to digest or mock digest the fusion protein for 1 hr, 2 hr, 4 hr and overnight (18-22 hr) at 37 C. Cleavage assays are set up in TCNB buffer: 50 mM Tris, 10 mM CaCl2), 150 mM NaCl, 0.05% Brij-35 (w/v), pH 7.5. Digested protein was aliquoted and stored at −80° C. prior to testing. Aliquots of digests were subsequently analyzed by SDS-PAGE followed by Western blotting to evaluate the extent of cleavage. Digests were also assessed in functional assays such as CTLL-2 proliferation and HEK-Blue Interleukin reporter assays. As shown in FIGS. 2A-E, essentially complete cleavage by MMP9 protease of the fusion proteins with functional site is seen after overnight incubation. In contrast, proteins containing a scrambled MMP cleavage site are not cut (FIG. 2E).
IL-2 activity was measured using either CTLL-2 cells (ATCC) or the reporter cell line HEK Blue IL2 (Invivogen, San Diego). In brief, for the CTLL-2 assay a titration of untreated and digested samples is added to 40 000 CTLL-2 cells per well in 100 ul medium in a 96-well plate and incubated at 37C in 5% CO2 for 18-22 hr. At the end of this period, 50ug/well Thiazolyl Blue Tetrazolium Bromide (MTT) (Sigma-Aldrich) was added and the plate was incubated for 5 hr at 37C in 5% CO2. Cells were lysed with 100 µl/well 10% SDS (Sigma) acidified with HCl, incubated at 37C for 4 hr, and absorbance was read at 570 nm. Recombinant human or mouse IL-2 (Peprotech and R&D systems respectively) was used as a positive control. FIGS. 3A-B, 3K-L and 3N-P show examples of untreated and digested fusion proteins evaluated in CTLL-2 proliferation assay.

MMP9 = target: T1, MMP9 (Mus musculus, UniProt P41245); assay: Cleavage of fusion protein by MMP9 protease (SDS-PAGE / Western blot); type: biochemical
T1 construct: purchased R&D Systems
T1 sequence (P41245 108-730): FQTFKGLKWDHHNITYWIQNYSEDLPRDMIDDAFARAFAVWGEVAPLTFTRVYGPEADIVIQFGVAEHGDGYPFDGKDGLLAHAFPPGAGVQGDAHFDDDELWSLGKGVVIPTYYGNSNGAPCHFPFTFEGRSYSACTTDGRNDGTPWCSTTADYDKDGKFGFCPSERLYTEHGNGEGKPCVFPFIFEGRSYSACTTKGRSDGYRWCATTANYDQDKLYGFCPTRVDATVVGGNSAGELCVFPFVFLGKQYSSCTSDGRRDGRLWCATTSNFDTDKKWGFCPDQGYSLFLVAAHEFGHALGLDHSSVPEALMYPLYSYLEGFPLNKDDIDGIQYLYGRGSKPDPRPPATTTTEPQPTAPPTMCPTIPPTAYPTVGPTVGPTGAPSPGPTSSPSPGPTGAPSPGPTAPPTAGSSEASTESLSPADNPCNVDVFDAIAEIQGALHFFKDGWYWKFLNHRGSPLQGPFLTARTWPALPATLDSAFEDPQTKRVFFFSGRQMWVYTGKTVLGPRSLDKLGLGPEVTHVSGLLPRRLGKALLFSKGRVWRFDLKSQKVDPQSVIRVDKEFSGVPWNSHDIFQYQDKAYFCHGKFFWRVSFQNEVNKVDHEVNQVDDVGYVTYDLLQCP
Experimental: as §3
Untreated and digested fusion proteins were evaluated for cleavage products by Western blot. The following monoclonal antibodies were used: rat anti-mouse IL-2 antibody (JES6-1A12; ThermoFisher), goat anti-mouse IL-2 polyclonal antibody (AF-402-NA; R&D systems), mouse anti-6xHis monoclonal antibody (MA1-21315, ThermoFisher), Anti-mIgG Fc HRP conjugated (ThermoFisher cat #A16084), and Anti-human IL2 antibody (Invitrogen, cat #MA5-17097, mouse IgG1). Detection was performed using either a goat anti-rat HRP-conjugated antibody, Donkey Anti-goat HRP-conjugated antibody or Goat Anti-mouse HIRP conjugated (Jackson Immuno Research, West Grove, PA) and developed using the SuperSignal West Femto Maximum sensitivity detection reagent (ThermoFisher) following the manufacturer's recommendations.

EMT6 tumor = conditions: mouse, in vivo, iv, 8 mg/kg
Excerpt: We assessed the levels of IL-2 fusion proteins present in tumors in vivo by utilizing fluorescently labelled proteins and real-time whole-body imaging. Non-cleavable Construct GGG and Construct DD were conjugated to Dylight 650 probe according to the manufacturer's protocol (Dylight 650 Antibody labeling kit, ThermoFisher). […] BALB/c mice were subcutaneously inoculated with EMT6 breast cancer syngeneic model and when the average tumor volume reached 240 mm^3, animals were randomized into 3 groups based on tumor volumes (n=2 mice per treatment group).
Following a single dose of the labeled IL-2 fusion proteins to tumor-bearing mice, fluorescent images (excitation 640/emission 680 consistent with Dylight 650 probe ex/em spectra) were captured over 96 hrs on an IVIS system (PerkinElmer, IVIS Lumina Series III) and are shown in FIG. 15A. The fluorescence intensity in tumor area was quantified across the groups, average background tumor fluorescence (group 1) was subtracted from group 2 and 3 values at each time-point, and data was normalized to the initial fluorescence intensity of same amount of each labeled protein.

Molecule: peptide 14: EDANS-conjugated MMP linker peptide with GPLGVRG site; retention motif target Collagen IV (KLWVLPKGPLGVRG-{EDANS}; also: EDANS fluorophore conjugated at 3' end)
- binding to collagen IV (collagen IV): strongly binds collagen IV

Molecule: 639 (NGRKIRMRCRAIDGD) [Construct 639]
- binds to HSGP, affinity [1]: binds to HSGP with high affinity (DTx protein)

Molecule: peptide 15: EDANS-conjugated MMP linker peptide GGGSG...; retention motif target Collagen I (GGGSGLHERHLNNN-{EDANS}; also: EDANS fluorophore conjugated at 3' end)
- binding to collagen IV (collagen IV): binds to a lesser extent

Molecule: 640 (DVIRDKTKTKIESLK) [Construct 640]
- binds to HSGP, affinity [1]: binds to HSGP with low affinity (DTx protein)

Molecule: peptide 13: EDANS-conjugated MMP linker peptide with GPLGVRG site; retention motif target pH dependent fibronectin (GGGWSHWGPLGVRG-{EDANS}; also: EDANS fluorophore conjugated at 3' end)
- binding to fibronectin at pH6 vs pH 7.5 (fibronectin): enhanced binding at pH6
- binding to fibronectin (fibronectin; 2 hours): able to bind fibronectin

B1: Construct A: SEQ ID NO 100: mIL2-2x(SG4)-MMPcs1-2x(G4S)-IL2Ralpha-6His (protein)
chain: APTSSSTSSSTAEAQQQQQQQQQQQQHLEQLLMDLQELLSRMENYRNLKLPRMLTFKFYLPKQATELKDLQCLEDELGPLRHVLDLTQSKSFQLEDAENFISNIRVTVVKLKGSDNTFECQFDDESATVVDFLRRWIAFCQSIISTSPQSGGGGSGGGGGPLGVRGGGGGSGGGGSELCLYDPPEVPNATFKALSYKNGTILNCECKRGFRRLKELVYMRCLGNSWSSNCQCTSNSHDKSRKQVTAQLEHQKEQQTTTDMQKPTQSMHQENLTGHCREPPPWKHEDSKRIYHFVEGQSVHYECIPGYKALQRGPAISICKMKCGKTGWTQPQLTCVDEREHHRFLASEESQGSRNSSPESETSCPITTTDFPQPTETTAMTETFVLTMEYKHHHHHH
- anti-tumor activity (MC38 tumor; daily intra-tumoral injection, 10 injections, Construct A 70ug/day, r hIL2 5 ug/day): substantially inhibited tumor growth; also recorded: complete elimination of tumor
- tumor establishment after re-challenge with MC38 cells (MC38 tumor; re-inoculated on Day 40, a month after re-challenge): Tumor growth was rejected; also recorded: no tumor mass was established
- greater activity of MMP-9 treated than untreated construct (EC50 comparison) (CTLL-2 cells; CTLL-2 proliferation): 10 fold
- CTLL-2 cell proliferation, MMP-9 treated construct (CTLL-2 cells; cleaved by MMP-9): stimulates CTLL-2 cell proliferation in a dose dependent manner
- time at which cleavage product was detectable (MMP9; +MMP-9 digestion, Western blot): 1 h
- full-length cytokine prodrug remaining (MMP9; overnight +MMP time point): substantially undetectable

B2: Construct DD: SEQ ID NO 814: m IL2-2x(GHHPH)-MMPscr-2x(G4S)-mIL2Ra(1-215)-mu IgG1 Fc (protein)
chain: APTSSSTSSSTAEAQQQQQQQQQQQQHLEQLLMDLQELLSRMENYRNLKLPRMLTFKFYLPKQATELKDLQCLEDELGPLRHVLDLTQSKSFQLEDAENFISNIRVTVVKLKGSDNTFECQFDDESATVVDFLRRWIAFCQSIISTSPQGHHPHGHHPHGVRLGPGGGGGSGGGGSELCLYDPPEVPNATFKALSYKNGTILNCECKRGFRRLKELVYMRCLGNSWSSNCQCTSNSHDKSRKQVTAQLEHQKEQQTTTDMQKPTQSMHQENLTGHCREPPPWKHEDSKRIYHFVEGQSVHYECIPGYKALQRGPAISICKMKCGKTGWTQPQLTCVDEREHHRFLASEESQGSRNSSPESETSCPITTTDFPQPTETTAMTETFVLTMEYKGCKPCICTVPEVSSVFIFPPKPKDVLTITLTPKVTCVVVDISKDDPEVQFSWFVDDVEVHTAQTQPREEQFNSTFRSVSELPIMHQDWLNGKEFKCRVNSAAFPAPIEKTISKTKGRPKAPQVYTIPPPKEQMAKDKVSLTCMITDFFPEDITVEWQWNGQPAENYKNTQPIMDTDGSYFVYSKLNVQKSNWEAGNTFTCSVLHEGLHNHHTEKSLSHSPGK
- tumor-associated fluorescence relative to Construct GGG (EMT6 tumor): roughly 2 fold
